Assay results: patent US20220175781A1, “CD40L COMPOSITIONS AND METHODS FOR TUNABLE REGULATION” (Obsidian Therapeutics, Inc., priority 2019, published 2022)

Columns and labels:
Type in all cases: cell-based
[1] = tested on: Jurkat cells; test: Surface expression of CD40L by FACS in lentivirally transduced Jurkat cells; conditions: for CD40L positive percent of live cells / Geometric Mean of CD40L fluorescent intensity: FACS
Protocol: 50,000 Jurkat cells were transduced with lentiviruses corresponding to the constructs. OT-001661, OT-001685, OT-001662, or OT-001666 and cultured for 48h. Cells were split and incubated with ligands for 24h before analysis by flow cytometry.
Jurkat cells were treated with one of the following: 1 μM Shield-1, 50 μM TMP, 1 μM Bazedoxifene (BZD) or vehicle control. Surface expression of CD40L was measured using FACS and the results are show in Table 9. All values were normalized to mode.

[2] = tested on: HEK-Blue™ CD40 cells; test: HEK-Blue CD40 SEAP reporter co-culture with transduced Jurkat cells; conditions: ligand 24 h (1 μM Shield-1, 50 μM TMP or 1 μM Bazedoxifene), recombinant soluble CD40L as standard
Protocol: Jurkat cells transduced with OT-001661, OT-001685, OT-001662, OT-001666, or OT-001667 were co-cultured with HEK-Blue™ CD40 cells (Invivogen, San Diego, Calif.). Cocultures were treated with ligands (1 μM Shield-1, 50 μM TMP, 1 μM Bazedoxifene (BZD) or vehicle control) for 24 hours and the secreted embryonic alkaline phosphatase (SEAP) reporter levels were measured in the media. All vehicle treated samples had background SEAP activity. Recombinant soluble CD40L was used as the standard in the experiments.

[3] = tested on: T cells co-cultured with monocyte derived dendritic cells (mDC); test: CD40L levels in T cells in mDC co-culture (FACS); conditions: mDC co-culture 2 days
Excerpt: In order to engage dendritic cells in an immune response, dendritic cells must be converted to a functional state by an antigen-specific CD4+ helper T cell. Activation of the dendritic cells may be followed by the activation of CD8+ T cells by the dendritic cells, a process referred to as dendritic cell licensing. Engagement of the CD40L expressed on the CD4+ cells with the CD40 on the dendritic cells can result in (i) dendritic cell stimulation-measured by expression of co-stimulatory and MHC molecules (ii) proinflammatory cytokine release (e.g. IL12, TNFα and INFγ) (iii) epitope spreading. To measure the effect of CD40L expression that is tuned by the biocircuits of the present disclosure, CD4+ T cells or Jurkat cells expressing any of the CD40L constructs described herein were co-cultured with dendritic cells.
Dendritic cell function in response to co-culture with T cells expressing CD40L was evaluated in the presence of ligand or corresponding vehicle control. Monocyte derived dendritic cells (mDC) (CD14+) were isolated from fresh blood and cultured for 5 days with IL-4 (7.5 ng/mL) and GM-CSF (20 ng/mL). The mDCs were frozen down after the 5 day culture. T cells were transduced with OT-001662 and expanded for 9 days before being frozen down. mDCs and T cells were thawed and co-cultured 1:10 DC: T cell ratio (i.e. 5×10^4 DCs: 5×10^5 T cells). mDC and T cells were co-cultured for 2 days before cells were collected for flow cytometry and supernatants were collected for cytokine analysis. For evaluation of regulated constructs, ligand (various doses of TMP) was added at the time initiating the co-culture and was kept in the co-culture for 2 days. Cytokines were analyzed by MSD after a single freeze thaw cycle. All cells were cultured in complete RPMI with 10% FBS during the course of the experiment. SR indicates stabilization ratio.

[4] = tested on: CD8 positive T cells; test: CD40L MFI by FACS in transduced CD8 positive T cells
Protocol: Regulation of ecDHFR (R12Y, Y100I) DRD based construct OT-001662 and ER (N413D) DRD based construct OT-001666 were tested in CD8 positive T cells. For OT-001662, expressing cells, ligand was added 6 days after viral transduction at a dose of 50 μM TMP. OT-001666 expressing cells were treated with 0.5 μM Bazedoxifene or vehicle control, 5 days after transduction. Approximately 15-30k cells were analyzed per sample by FACS. All samples were compared to empty vector control as well as the constitutively expressed construct, OT-001661. Table 11 provides the mean fluorescence intensities (MFIs) obtained with each sample.

[5] = tested on: CD4+ T cells; test: Ligand dose response, % CD40L positive cells, CD4+ T cells
Protocol: (§1) Ligand dose response curve experiments were performed with increasing doses of ligand using OT-001662 and OT-001666 constructs in both CD4+ as well as CD8+ T cells.
(§2) The experiments were conducted using three different volumes of virus for transduction i.e. 0.5, 2 and 10 μL.

[6] = tested on: CD8+ T cells; test: Ligand dose response, % CD40L positive cells, CD8+ T cells
Protocol: as §1, §2

[7] = constitutive construct, no DRD, no ligand
[8] = ligand 24 h (1 μM Shield-1 OT-001685, 50 μM TMP OT-001662, 1 μM Bazedoxifene OT-001666)
[9] = vehicle 24 h (Ethanol 0.2% OT-001685, DMSO 0.5% OT-001662, DMSO 0.01% OT-001666)

B1: OT-001661: constitutively expressed full length CD40L construct (protein)
chain: MHMIETYNQTSPRSAATGLPISMKIFMYLLTVFLITQMIGSALFAVYLHRRLDKIEDERNLHEDFVFMKTIQRCNTGERSLSLLNCEEIKSQFEGFVKDIMLNKEETKKENSFEMQKGDQNPQIAAHVISEASSKTTSVLQWAEKGYYTMSNNLVTLENGKQLTVKRQGLYYIYAQVTFCSNREASSQAPFIASLCLKSPGRFERILLRAANTHSSAKPCGQQSIHLGGVFELQPGASVFVNVTDPSQVSHGTGFTSFGLLKL
[1]; [7]
  CD40L positive percent of live cells: 99.4%
  Geometric Mean of CD40L fluorescent intensity: 10075
[1]; constitutive construct
  CD40L expression relative to untransduced cells: higher than untransduced cells
[2]
  Soluble CD40L: 9341.40 pg/mL
[3]; CD4+, DMSO
  % CD40L+: 68.1%
  CD40L MFI: 579
[3]; CD4+, TMP
  % CD40L+: 68.3%
  CD40L MFI: 580
[3]; CD8+, DMSO
  % CD40L+: 62.2%
  CD40L MFI: 495
[3]; CD8+, TMP
  % CD40L+: 62.3%
  CD40L MFI: 499

B2: OT-001666 (Met; ER (305-549 of WT, L384M, N413D, M421G, G521R, Y537S); Histidine; CD40L; stop) (ligand)
chain: MSLALSLTADQMVSALLDAEPPILYSEYDPTRPFSEASMMGLLTNLADRELVHMINWAKRVPGFVDLTLHDQVHLLECAWMEILMIGLVWRSMEHPGKLLFAPNLLLDRDQGKCVEGGVEIFDMLLATSSRFRMMNLQGEEFVCLKSIILLNSGVYTFLSSTLKSLEEKDHIHRVLDKITDTLIHLMAKAGLTLQQQHQRLAQLLLILSHIRHMSNKRMEHLYSMKCKNVVPLSDLLLEMLDAHRLHMIETYNQTSPRSAATGLPISMKIFMYLLTVFLITQMIGSALFAVYLHRRLDKIEDERNLHEDFVFMKTIQRCNTGERSLSLLNCEEIKSQFEGFVKDIMLNKEETKKENSFEMQKGDQNPQIAAHVISEASSKTTSVLQWAEKGYYTMSNNLVTLENGKQLTVKRQGLYYIYAQVTFCSNREASSQAPFIASLCLKSPGRFERILLRAANTHSSAKPCGQQSIHLGGVFELQPGASVFVNVTDPSQVSHGTGFTSFGLLKL
[1]; [8]
  CD40L positive percent of live cells: 38.4%
  Geometric Mean of CD40L fluorescent intensity: 421
[1]; [9]
  CD40L positive percent of live cells: 0.024%
  Geometric Mean of CD40L fluorescent intensity: 21.5
[2]
  Soluble CD40L: 1824.7 pg/mL
[4]; +Ligand (50 μM TMP OT-001662; 0.5 μM Bazedoxifene OT-001666)
  CD40L MFI: 33.1
[4]; Vehicle
  CD40L MFI: 35.4
[5]; 2 μL virus, BZD 0.05 nM
  % CD40L positive cells: 8.57%
[5]; 2 μL virus, BZD 0.5 nM
  % CD40L positive cells: 9.25%
[5]; 2 μL virus, BZD 5 nM
  % CD40L positive cells: 11.1%
[5]; 2 μL virus, BZD 50 nM
  % CD40L positive cells: 36%
[5]; 2 μL virus, BZD 500 nM
  % CD40L positive cells: 71.8%
[5]; 10 μL virus, BZD 0.05 nM
  % CD40L positive cells: 4.16%
[5]; 10 μL virus, BZD 0.5 nM
  % CD40L positive cells: 4.86%
[5]; 10 μL virus, BZD 5 nM
  % CD40L positive cells: 6.42%
[5]; 10 μL virus, BZD 50 nM
  % CD40L positive cells: 34%
[5]; 10 μL virus, BZD 500 nM
  % CD40L positive cells: 76.5%
[6]; 2 μL virus, BZD 0.05 nM
  % CD40L positive cells: 0.69%
[6]; 2 μL virus, BZD 0.5 nM
  % CD40L positive cells: 0.52%
[6]; 2 μL virus, BZD 5 nM
  % CD40L positive cells: 0.71%
[6]; 2 μL virus, BZD 50 nM
  % CD40L positive cells: 3.32%
[6]; 2 μL virus, BZD 500 nM
  % CD40L positive cells: 60%
[6]; 10 μL virus, BZD 0.05 nM
  % CD40L positive cells: 0.5%
[6]; 10 μL virus, BZD 0.5 nM
  % CD40L positive cells: 0.2%
[6]; 10 μL virus, BZD 5 nM
  % CD40L positive cells: 0.23%
[6]; 10 μL virus, BZD 50 nM
  % CD40L positive cells: 17.7%
[6]; 10 μL virus, BZD 500 nM
  % CD40L positive cells: 68.5%
